Reference: patent US8097440B1, “Engineered microorganisms capable of producing target compounds under anaerobic conditions” (Gevo, Inc., priority 2008, dated 2012)

What was measured:
Assay type in all cases: biochemical, E. coli
[1] = substrate: NC(=O)C1=CN([C@@H]2O[C@H](COP(=O)(O)OP(=O)(O)OC[C@H]3O[C@@H](n4cnc5c(N)ncnc54)[C@H](OP(=O)(O)O)[C@@H]3O)[C@@H](O)[C@H]2O)C=CC1; test: KARI cuvette assay, purified Ec_IlvC^B8A71S-his6; conditions: other: purified; acetolactate as substrate
Method: (§1) KARI cuvette assay: KARI activity was assayed kinetically by monitoring the decrease in NAD(P)H concentration by measuring the absorbance at 340 nm. A reaction buffer was prepared containing 250 mM potassium phosphate pH 7, 1 mM DTT and 10 mM MgCl2. Cell pellets were resuspended (0.25 g wet weight/mL buffer) in 250 mM potassium phosphate (KPi) buffer containing 1 mM DTT and 10 mM MgCl2. The resuspended cells were lysed by sonication for 1 min with a 50% duty cycle and pelleted at 11000×g and 4° C. for 15 min. A reaction mixture consisting of 910 μl reaction buffer, 50 μl acetolactate, and 20 μl lysate was prepared in a cuvette. The reaction was initiated by addition of 20 μL of 10 mM NAD(P)H. A substrate free control was conducted using reaction buffer without the addition of acetolactate.
(§2) Purification of KARI: Cell pellets used for purification were resuspended in purification buffer A (20 mM Tris, 20 mM imidazol, 100 mM NaCl, 10 mM MgCl2, pH 7.4). KARI was purified by IMAC (Immobilized metal affinity chromatography) over a 1 ml Histrap High Performance (histrap HP) column pre-charged with Nickel (GE Healthcare) using an Akta FPLC system (GE Healthcare). The column was equilibrated with four column volumes (cv) of buffer A. After injecting the crude extract, the column was washed with buffer A for 2 cv, followed by a wash step with a mixture of 10% elution buffer B (20 mM Tris, 300 mM imidazol, 100 mM NaCl, 10 mM MgCl2, pH 7.4) for 5 cv. KARI variants were eluted at 40% buffer B and stored at 4° C.
(§3) As a next step, the gene encoding variant Ec_llvC^Q110V-his6 (SEQ ID NO: 23) was used as template to generate individual combinations of the mutation Q110V with other mutations: R68L, A71T, A71S, R76G, R76S, R76T, S78D, and R76D. After screening the variants as described above, the most promising ones were expressed, purified, and characterized. Table 29 lists the KM values in μM on NADPH and NADH for Ec_llvC^his6, Ec_llvC^Q110V-his6, and variants of Ec_llvC^Q110V-his6. […] The A71S mutation was introduced into Ec_llvC^B8-his6 resulting in a variant Ec_llvC^B8A71S-his6, which yielded 44% catalytic efficiency on NADH compared to the catalytic efficiency of wild-type KARI on NADPH (FIG. 19 and Table 30).

[2] = substrate: NC(=O)C1=CN([C@@H]2O[C@H](COP(=O)(O)OP(=O)(O)OC[C@H]3O[C@@H](n4cnc5c(N)ncnc54)[C@H](O)[C@@H]3O)[C@@H](O)[C@H]2O)C=CC1; test: KARI cuvette assay, purified Ec_IlvC^B8A71S-his6
Method: as §1, §2, §3

[3] = substrate: NC(=O)C1=CN([C@@H]2O[C@H](COP(=O)(O)OP(=O)(O)OC[C@H]3O[C@@H](n4cnc5c(N)ncnc54)[C@H](O)[C@@H]3O)[C@@H](O)[C@H]2O)C=CC1; test: KARI assay, purified Ec_IlvC^P2D1-A1-his6; conditions: other: expressed in yeast GEVO1186, purified; 30.0 °C
Method: as §1, §2
Improved variants were expressed and purified from GEVO1186. 20 mL SC-URA medium overnight cultures were grown at 30° C. and 250 rpm in 250 mL flasks and were then used to inoculate 96 well deep well plates on the next morning. 50 μL of the overnight cultures were transferred into 600 μL SC-URA medium per well. The plates were then grown at 30° C. and 250 rpm in a humidified plate shaker for 8 h. In order to the harvest, the cultures were transferred into 50 mL Falcon tubes and then spun down at 4° C. and 5,000 rpm for 10 min. […]

[4] = substrate: NC(=O)C1=CN([C@@H]2O[C@H](COP(=O)(O)OP(=O)(O)OC[C@H]3O[C@@H](n4cnc5c(N)ncnc54)[C@H](OP(=O)(O)O)[C@@H]3O)[C@@H](O)[C@H]2O)C=CC1; test: KARI assay, purified Ec_IlvC^P2D1-his6; conditions: other: expressed in yeast GEVO1186, purified; 30.0 °C
Method: as §1, §2
(§4) Improved variants were expressed and purified from GEVO1186. 20 mL SC-URA medium overnight cultures were grown at 30° C. and 250 rpm in 250 mL flasks and were then used to inoculate 96 well deep well plates on the next morning. 50 μL of the overnight cultures were transferred into 600 μL SC-URA medium per well. The plates were then grown at 30° C. and 250 rpm in a humidified plate shaker for 8 h. In order to the harvest, the cultures were transferred into 50 mL Falcon tubes and then spun down at 4° C. and 5,000 rpm for 10 min. The pellets were frozen until they were processed and purified as described in Example 14 above.
(§5) Results: Two rounds of error-prone PCR and screening were carried out. The libraries (˜2400 clones per library) were screened using the KARI high-throughput assay. […] In the first round variant Ec_llvC^P2D1-his6 (SEQ ID NO: 38), encoded by Ec_ilvC_coSc^P2D1-his6 (SEQ ID NO: 37) was identified carrying the following mutations: D146G and G185R. This variant served as parent for the second round of error-prone PCR and screening which yielded variant Ec_llvC^P2D1-A1-his6 (SEQ ID NO: 42), encoded by Ec_ilvC_coSc^P2D1-A1-his6 (SEQ ID NO: 41) with one additional mutation (K433E). A two-fold improvement of the specific activity in lysate and in the purified enzyme was observed after two rounds of error-prone PCR.

[5] = substrate: NC(=O)C1=CN([C@@H]2O[C@H](COP(=O)(O)OP(=O)(O)OC[C@H]3O[C@@H](n4cnc5c(N)ncnc54)[C@H](O)[C@@H]3O)[C@@H](O)[C@H]2O)C=CC1; test: KARI assay, purified Ec_IlvC^P2D1-his6; conditions: other: expressed in yeast GEVO1186, purified; 30.0 °C
Method: as §1, §2, §4, §5

[6] = other: purified, acetolactate as substrate

B1: E. coli KARI Ec_IlvC variant Ec_IlvC^B8A71S-his6 (Q110V, S78D, A71S), SEQ ID NO: 29 (Escherichia coli K-12; A71S/Q110V/S78D) (protein)
chain: MANYFNTLNLRQQLAQLGKCRFMGRDEFADGASYLQGKKVVIVGCGAQGLNQGLNMRDSGLDISYALRKESIAEKRADWRKATENGFKVGTYEELIPQADLVINLTPDKVHSDVVRTVQPLMKDGAALGYSHGFNIVEVGEQIRKDITVVMVAPKCPGTEVREEYKRGFGVPTLIAVHPENDPKGEGMAIAKAWAAATGGHRAGVLESSFVAEVKSDLMGEQTILCGMLQAGSLLCFDKLVEEGTDPAYAEKLIQFGWETITEALKQGGITLMMDRLSNPAKLRAYALSEQLKEIMAPLFQKHMDDIISGEFSSGMMADWANDDKKLLTWREETGKTAFETAPQYEGKIGEQEYFDKGVLMIAMVKAGVELAFETMVDSGIIEESAYYESLHELPLIANTIARKRLYEMNVVISDTAEYGNYLFSYACVPLLKPFMAELQPGDLGKAIPEGAVDNGQLRDVNEAIRSHAIEQVGKKLRGYMTDMKRIAVAGLEHHHHHH
With B1 the Km [1] was 63.4 µM, the kcat [1] was 2.4 s⁻¹ and the kcat/Km [1] was 37,459 M^−1 * s^−1. The Km [2, 6] was 53.5 µM, the kcat [2, 6] was 2.0 s⁻¹ and the kcat/Km [2, 6] was 38,330 M^−1 * s^−1. For the same protein, the kcat/Km ([2]; with NADH) was 37500 M⁻¹ s⁻¹.

B2: E. coli KARI Ec_IlvC variant Ec_IlvC^P2D1-A1-his6 (Ec_IlvC^P2D1-his6 with K433E), SEQ ID NO: 42 (Escherichia coli K-12; A71S/D146G/G185R/K433E/Q110V/R76D/S78D) (protein)
chain: MANYFNTLNLRQQLAQLGKCRFMGRDEFADGASYLQGKKVVIVGCGAQGLNQGLNMRDSGLDISYALRKESIAEKDADWRKATENGFKVGTYEELIPQADLVINLTPDKVHSDVVRTVQPLMKDGAALGYSHGFNIVEVGEQIRKGITVVMVAPKCPGTEVREEYKRGFGVPTLIAVHPENDPKREGMAIAKAWAAATGGHRAGVLESSFVAEVKSDLMGEQTILCGMLQAGSLLCFDKLVEEGTDPAYAEKLIQFGWETITEALKQGGITLMMDRLSNPAKLRAYALSEQLKEIMAPLFQKHMDDIISGEFSSGMMADWANDDKKLLTWREETGKTAFETAPQYEGKIGEQEYFDKGVLMIAMVKAGVELAFETMVDSGIIEESAYYESLHELPLIANTIARKRLYEMNVVISDTAEYGNYLFSYACVPLLEPFMAELQPGDLGKAIPEGAVDNGQLRDVNEAIRSHAIEQVGKKLRGYMTDMKRIAVAGHHHHHH
With B2 the Km [3] was 26 µM, the kcat [3] was 4.3 s⁻¹ and the kcat/Km [3] was 167,687 M^−1 * S^−1.

B3: E. coli KARI Ec_IlvC variant Ec_IlvC^P2D1-his6 (Ec_IlvC^6E6-his6 with D146G and G185R), SEQ ID NO: 38 (Escherichia coli K-12; A71S/D146G/G185R/Q110V/R76D/S78D) (protein)
chain: MANYFNTLNLRQQLAQLGKCRFMGRDEFADGASYLQGKKVVIVGCGAQGLNQGLNMRDSGLDISYALRKESIAEKDADWRKATENGFKVGTYEELIPQADLVINLTPDKVHSDVVRTVQPLMKDGAALGYSHGFNIVEVGEQIRKGITVVMVAPKCPGTEVREEYKRGFGVPTLIAVHPENDPKREGMAIAKAWAAATGGHRAGVLESSFVAEVKSDLMGEQTILCGMLQAGSLLCFDKLVEEGTDPAYAEKLIQFGWETITEALKQGGITLMMDRLSNPAKLRAYALSEQLKEIMAPLFQKHMDDIISGEFSSGMMADWANDDKKLLTWREETGKTAFETAPQYEGKIGEQEYFDKGVLMIAMVKAGVELAFETMVDSGIIEESAYYESLHELPLIANTIARKRLYEMNVVISDTAEYGNYLFSYACVPLLKPFMAELQPGDLGKAIPEGAVDNGQLRDVNEAIRSHAIEQVGKKLRGYMTDMKRIAVAGHHHHHH
B3 was tested, and the Km [4] was 1432 µM, the kcat [4] was 0.54 s⁻¹ and the kcat/Km [4] was 377 M^−1 * S^−1. For the same protein, the Km [5] was 40 µM, the kcat [5] was 3.3 s⁻¹ and the kcat/Km [5] was 82,650 M^−1 * S^−1.
